Data as given in US20260176332A1 (BEIJING MDTK BIOTECHNOLOGY, published 2026).

Experiments:
[1] = biological target: T1, GSDMD-CT expressed protein (human, UniProt P57764 276-484); experiment: competitive inhibition ELISA, coated GSDMD-CT vs soluble GSDMD-CT (FIG. 5)
T1 construct: Recombinantly expressed; also called recombinant GSDMD-CT; C-terminus of GSDMD
T1 sequence: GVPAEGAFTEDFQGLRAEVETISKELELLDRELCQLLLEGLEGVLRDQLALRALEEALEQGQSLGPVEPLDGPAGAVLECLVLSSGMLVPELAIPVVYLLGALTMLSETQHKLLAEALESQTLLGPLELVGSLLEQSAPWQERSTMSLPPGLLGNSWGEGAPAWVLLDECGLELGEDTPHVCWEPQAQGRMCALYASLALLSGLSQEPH
Method: The protein coating amount and antibody dilution concentration were preliminarily determined by checkerboard titration, and the experimental procedure was as follows:
(1) Coating antigen: The GSDMD-CT expressed protein was diluted with coating solution and coated at 2 ug/ml, 1 ug/ml, 0.5 ug/ml, 0.25 ug/ml, 100 ul/well overnight at 4° C.; washed three times with the washing solution, 350 ul/well, and pat dried. (2) Blocking: 200 ul/well blocking solution, incubated at 37° C. for 2 h; washed three times with the washing solution, 350 ul/well, and pat dried. (3) 1 ug/mL of #25, #44, and #50 antibodies was diluted 1,000 times with antibody diluent, then diluted with a 2-fold gradient, 100 μl/well, and blank was 100 μl of antibody diluent, and the antibodies were incubated at 37° C. for 1 h; washed three times with the washing solution, 350 ul/well, and pat dried. […] (6) Termination, reading: 100 ul/well stop solution was added, reading at OD 450 nm. (7) The dose curve of coating protein relative to antibody was determined. […] (10) 50 ul of sample solutions of different concentrations were added to 50 ul of diluted antibody, and then 100 ul of the mixture was added to the microplate reader plate and incubated for 1 h at 37° C.

[2] = biological target: T2, Elongated Peptide (SEQ ID NO:5: TDGVPAEGAFTEDFQGLR) (human); experiment: ELISA, peptide coated at 2 ug/ml, hybridoma supernatant diluted 100 times
T2 construct: Synthetic peptide coated on the ELISA plate
T2 peptide: TDGVPAEGAFTEDFQGLR
Method: (§1) (1) Coating antigen: Specific Peptide and Elongated Peptide were respectively diluted with the coating solution, and coated at 2 μg/ml, 100 ul/well at 4° C. overnight; washed three times with the washing solution, 350 ul/well, and pat dried. (2) Blocking: 200 ul/well blocking solution, incubated at 37° C. for 2 h; washed three times with the washing solution, 350 ul/well, and pat dried. (3) The antibody (such as #25, #44, or #50) supernatant medium in Table 1 was diluted by 100 times with antibody diluent, 100 ul/well, and the blank was 100 ul antibody dilution, and they were incubated at 37° C. for 1 h; washed three times with the washing solution, 350 ul/well, and pat dried. (4) The secondary antibody was diluted with antibody diluent at a ratio of 1:10000, 100 ul/well, incubated at 37° C. for 1 h; washed three times with the washing solution, 350 ul/well, and pat dried. (5) Color development: 100 ul/well developer was added, incubating 10 min at room temperature. (6) Termination, reading: 100 ul/well stop solution was added, reading at OD 450 nm.

[3] = biological target: T3, Specific Peptide (SEQ ID NO:4: GVPAEGAFTEDFQGLR) (human); experiment: as above
T3 construct: Synthetic peptide coated on the ELISA plate; also called polypeptide number #1
T3 peptide: GVPAEGAFTEDFQGLR
Method: as §1

- binding result [1]: binds
- binding result [2]: no binding
- binding result [3]: binds
B1: MD2106 #50 (antibody, IgG1, V domains shown)
VH: QVQLQQPGTELVKPGASVKLSCKASGYTFTNYWIHWVKQRPGQGLEWIGNTKPSNGDIHYNEKFRSKATLTVDKSSSTAYIQLSSLTSEDSAVYFCAVGYYWGQGTTLTVSS
VL: DIVMTQSPSSLTVTAGEKVTMSCKSSQSLLNSGNQKNYLTWYQQKPGQPPKMLIYWAYNRDSGVPDRFTGSGSGADFTLTISSVQAEDLAVYYCQNDYSYPLTFGAGTKLEL
notes: Mouse hybridoma monoclonal antibody; heavy chain type IgG1, light chain type kappa; Hybridoma supernatant diluted 100 times in the peptide ELISA; 1 ug/mL antibody, further diluted, in the GSDMD-CT ELISA; also called monoclonal antibody #50; MD2106-#5 #50
